{
  "source": "patent US20170002055A1",
  "about": "“Novel peptides and combination of peptides for use in immunotherapy against ovarian cancer and other cancers” (immatics biotechnologies GmbH, priority 2015, published 2017)",
  "data": [
    {"target": "HLA-A*02:01 (Homo sapiens, UniProt P04439, D140Y/D185E/D98H/E176V/E277Q/G131W/G231S/I119V/I121R/I166T/I218V/L300P/L318F/N151K/N90K/P208A/P217A/Q86G/Q94H/R138H/R169H/T345S)", "test": "MHC binding assay (UV-ligand exchange, β2m ELISA, peptide exchange yield)", "conditions": "MHC class I binding score; binding to HLA-A*02:01 ranged by peptide exchange yield (UV-ligand exchange, β2m ELISA)", "how_it_was_run": "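Peptide–HLA-A*02:01 complexes were formed by UV-mediated exchange of a UV-cleavable ligand for the test peptide. Exchange yield was measured by capturing complexes on streptavidin, detecting with HRP anti-β2m antibody (1 h, 37°C) and reading TMB absorbance at 450 nm.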", "values": [
      {"substance": "449 (KLAEGLDIQL; listed as Homo sapiens) [compound 449]", "Peptide exchange": "“+++” (≧50 = +++)"},
      {"substance": "450 (FMIDASVHPTL; listed as Homo sapiens) [compound 450]", "Peptide exchange": "“+++” (≧50 = +++)"},
      {"substance": "451 (LLLLDTVTMQV; listed as Homo sapiens) [compound 451]", "Peptide exchange": "“++” (≧20% = ++)"},
      {"substance": "452 (ILLEHGADPNL; listed as Homo sapiens) [compound 452]", "Peptide exchange": "“+++” (≧50 = +++)"},
      {"substance": "453 (KLLEATSAV; listed as Homo sapiens) [compound 453]", "Peptide exchange": "“++” (≧20% = ++)"},
      {"substance": "455 (SLLKEPQKVQL; listed as Homo sapiens) [compound 455]", "Peptide exchange": "“++” (≧20% = ++)"},
      {"substance": "456 (LLIGHLERV; listed as Homo sapiens) [compound 456]", "Peptide exchange": "“+++” (≧50 = +++)"},
      {"substance": "457 (SLLPGNLVEKV; listed as Homo sapiens) [compound 457]", "Peptide exchange": "“+++” (≧50 = +++)"},
      {"substance": "458 (SLIDKLYNI; listed as Homo sapiens) [compound 458]", "Peptide exchange": "“++” (≧20% = ++)"},
      {"substance": "459 (ALITEVVRL; listed as Homo sapiens) [compound 459]", "Peptide exchange": "“++” (≧20% = ++)"},
      {"substance": "461 (VMFRTPLASV; listed as Homo sapiens) [compound 461]", "Peptide exchange": "“++” (≧20% = ++)"},
      {"substance": "462 (KLAKQPETV; listed as Homo sapiens) [compound 462]", "Peptide exchange": "“+++” (≧50 = +++)"},
      {"substance": "464 (ALNDCIYSV; listed as Homo sapiens) [compound 464]", "Peptide exchange": "“+++” (≧50 = +++)"},
      {"substance": "465 (QLCDLNAEL; listed as Homo sapiens) [compound 465]", "Peptide exchange": "“+++” (≧50 = +++)"},
      {"substance": "466 (VLIANLEKL; listed as Homo sapiens) [compound 466]", "Peptide exchange": "“++++” (≧75% = ++++)"},
      {"substance": "467 (FLAKDFNFL; listed as Homo sapiens) [compound 467]", "Peptide exchange": "“+++” (≧50 = +++)"},
      {"substance": "468 (YLRSVGDGETV; listed as Homo sapiens) [compound 468]", "Peptide exchange": "“+++” (≧50 = +++)"},
      {"substance": "469 (YLASDEITTV; listed as Homo sapiens) [compound 469]", "Peptide exchange": "“+++” (≧50 = +++)"},
      {"substance": "471 (YLYNNMIAKI; listed as Homo sapiens) [compound 471]", "Peptide exchange": "“+++” (≧50 = +++)"},
      {"substance": "472 (KLLEVSDDPQV; listed as Homo sapiens) [compound 472]", "Peptide exchange": "“+++” (≧50 = +++)"},
      {"substance": "473 (AMATESILHFA; listed as Homo sapiens) [compound 473]", "Peptide exchange": "“+++” (≧50 = +++)"},
      {"substance": "474 (YLDPALELGPRNV; listed as Homo sapiens) [compound 474]", "Peptide exchange": "“+++” (≧50 = +++)"},
      {"substance": "475 (LLLNEEALAQI; listed as Homo sapiens) [compound 475]", "Peptide exchange": "“+++” (≧50 = +++)"},
      {"substance": "476 (ALMERTGYSMV; listed as Homo sapiens) [compound 476]", "Peptide exchange": "“+++” (≧50 = +++)"},
      {"substance": "477 (ALLPASGQIAL; listed as Homo sapiens) [compound 477]", "Peptide exchange": "“+++” (≧50 = +++)"},
      {"substance": "478 (YLLHEKLNL; listed as Homo sapiens) [compound 478]", "Peptide exchange": "“+++” (≧50 = +++)"},
      {"substance": "479 (SLFGNSGILENV; listed as Homo sapiens) [compound 479]", "Peptide exchange": "“+++” (≧50 = +++)"},
      {"substance": "480 (ALLEDSCHYL; listed as Homo sapiens) [compound 480]", "Peptide exchange": "“+++” (≧50 = +++)"},
      {"substance": "481 (GLIEDYEALL; listed as Homo sapiens) [compound 481]", "Peptide exchange": "“+++” (≧50 = +++)"},
      {"substance": "484 (SLIEKVTQL; listed as Homo sapiens) [compound 484]", "Peptide exchange": "“+++” (≧50 = +++)"},
      {"substance": "485 (NVPDSFNEV; listed as Homo sapiens) [compound 485]", "Peptide exchange": "“+++” (≧50 = +++)"},
      {"substance": "486 (AVMESIQGV; listed as Homo sapiens) [compound 486]", "Peptide exchange": "“+++” (≧50 = +++)"},
      {"substance": "487 (LLINSVFHV; listed as Homo sapiens) [compound 487]", "Peptide exchange": "“+++” (≧50 = +++)"},
      {"substance": "488 (FLAEDPKVTL; listed as Homo sapiens) [compound 488]", "Peptide exchange": "“+++” (≧50 = +++)"},
      {"substance": "490 (FLLQHVQEL; listed as Homo sapiens) [compound 490]", "Peptide exchange": "“+++” (≧50 = +++)"},
      {"substance": "491 (GLNDRSDAV; listed as Homo sapiens) [compound 491]", "Peptide exchange": "“++” (≧20% = ++)"},
      {"substance": "492 (SLFDGFADGLGV; listed as Homo sapiens) [compound 492]", "Peptide exchange": "“+++” (≧50 = +++)"},
      {"substance": "493 (GLLGEKTQDLIGV; listed as Homo sapiens) [compound 493]", "Peptide exchange": "“+++” (≧50 = +++)"},
      {"substance": "494 (ALQPEPIKV; listed as Homo sapiens) [compound 494]", "Peptide exchange": "“++” (≧20% = ++)"},
      {"substance": "495 (FIFSEKPVFV; listed as Homo sapiens) [compound 495]", "Peptide exchange": "“+++” (≧50 = +++)"},
      {"substance": "496 (FLVEKQPPQV; listed as Homo sapiens) [compound 496]", "Peptide exchange": "“+++” (≧50 = +++)"},
      {"substance": "497 (GLLEKLTAI; listed as Homo sapiens) [compound 497]", "Peptide exchange": "“+++” (≧50 = +++)"},
      {"substance": "498 (KLWTGGLDNTV; listed as Homo sapiens) [compound 498]", "Peptide exchange": "“+++” (≧50 = +++)"},
      {"substance": "500 (SLMEDQVLQL; listed as Homo sapiens) [compound 500]", "Peptide exchange": "“+++” (≧50 = +++)"},
      {"substance": "501 (LLDPNVKSIFV; listed as Homo sapiens) [compound 501]", "Peptide exchange": "“+++” (≧50 = +++)"},
      {"substance": "502 (RLLAQVPGL; listed as Homo sapiens) [compound 502]", "Peptide exchange": "“+++” (≧50 = +++)"},
      {"substance": "503 (SLNHFTHSV; listed as Homo sapiens) [compound 503]", "Peptide exchange": "“+++” (≧50 = +++)"},
      {"substance": "504 (GLSDGNPSL; listed as Homo sapiens) [compound 504]", "Peptide exchange": "“++” (≧20% = ++)"},
      {"substance": "505 (SLAPGDVVRQV; listed as Homo sapiens) [compound 505]", "Peptide exchange": "“++” (≧20% = ++)"},
      {"substance": "506 (KLLGKVETA; listed as Homo sapiens) [compound 506]", "Peptide exchange": "“+++” (≧50 = +++)"},
      {"substance": "507 (KLIDDQDISISL; listed as Homo sapiens) [compound 507]", "Peptide exchange": "“+++” (≧50 = +++)"},
      {"substance": "508 (ILAQEQLVVGV; listed as Homo sapiens) [compound 508]", "Peptide exchange": "“+++” (≧50 = +++)"},
      {"substance": "509 (FLFDTKPLIV; listed as Homo sapiens) [compound 509]", "Peptide exchange": "“+++” (≧50 = +++)"},
      {"substance": "510 (KLYSVVSQL; listed as Homo sapiens) [compound 510]", "Peptide exchange": "“++” (≧20% = ++)"},
      {"substance": "512 (SLSEIVPCL; listed as Homo sapiens) [compound 512]", "Peptide exchange": "“+++” (≧50 = +++)"},
      {"substance": "513 (SLWPSPEQL; listed as Homo sapiens) [compound 513]", "Peptide exchange": "“++” (≧20% = ++)"},
      {"substance": "514 (ILVDWLVQV; listed as Homo sapiens) [compound 514]", "Peptide exchange": "“+++” (≧50 = +++)"},
      {"substance": "515 (LLQELVLFL; listed as Homo sapiens) [compound 515]", "Peptide exchange": "“+++” (≧50 = +++)"},
      {"substance": "516 (AVGPASILKEV; listed as Homo sapiens) [compound 516]", "Peptide exchange": "“++” (≧20% = ++)"},
      {"substance": "517 (LLMPIPEGLTL; listed as Homo sapiens) [compound 517]", "Peptide exchange": "“+++” (≧50 = +++)"},
      {"substance": "519 (GLLHLTLLL; listed as Homo sapiens) [compound 519]", "Peptide exchange": "“+++” (≧50 = +++)"},
      {"substance": "520 (LAVHPSGVAL; listed as Homo sapiens) [compound 520]", "Peptide exchange": "“+” (≧10% = +)"},
      {"substance": "521 (MLLTKLPTI; listed as Homo sapiens) [compound 521]", "Peptide exchange": "“+++” (≧50 = +++)"},
      {"substance": "522 (TLWYRSPEV; listed as Homo sapiens) [compound 522]", "Peptide exchange": "“++” (≧20% = ++)"},
      {"substance": "523 (YQIPRTFTL; listed as Homo sapiens) [compound 523]", "Peptide exchange": "“++” (≧20% = ++)"},
      {"substance": "524 (ALIENLTHQI; listed as Homo sapiens) [compound 524]", "Peptide exchange": "“++” (≧20% = ++)"},
      {"substance": "525 (VLLEAGEGLVTI; listed as Homo sapiens) [compound 525]", "Peptide exchange": "“+++” (≧50 = +++)"},
      {"substance": "526 (RLAEVGQYEQV; listed as Homo sapiens) [compound 526]", "Peptide exchange": "“++” (≧20% = ++)"},
      {"substance": "527 (FLLEPGNLEV; listed as Homo sapiens) [compound 527]", "Peptide exchange": "“++++” (≧75% = ++++)"},
      {"substance": "528 (SVAEGRALMSV; listed as Homo sapiens) [compound 528]", "Peptide exchange": "“+++” (≧50 = +++)"},
      {"substance": "529 (LLADELITV; listed as Homo sapiens) [compound 529]", "Peptide exchange": "“+++” (≧50 = +++)"},
      {"substance": "530 (VMYADIGGMDI; listed as Homo sapiens) [compound 530]", "Peptide exchange": "“+++” (≧50 = +++)"},
      {"substance": "531 (YTLPIASSIRL; listed as Homo sapiens) [compound 531]", "Peptide exchange": "“+++” (≧50 = +++)"},
      {"substance": "537 (TLAPGEVLRSV; listed as Homo sapiens) [compound 537]", "Peptide exchange": "“+++” (≧50 = +++)"},
      {"substance": "538 (LLLAHIIAL; listed as Homo sapiens) [compound 538]", "Peptide exchange": "“++” (≧20% = ++)"},
      {"substance": "539 (ALFDAQAQV; listed as Homo sapiens) [compound 539]", "Peptide exchange": "“+++” (≧50 = +++)"},
      {"substance": "541 (SMLEPVPEL; listed as Homo sapiens) [compound 541]", "Peptide exchange": "“+++” (≧50 = +++)"}
    ]}
  ]
}
